Experimental data taken from patent publication US20170129967A1 (CHEMOTHERAPEUTISCHES FORSCHUNGSINSTITUT GEORG SPEYER HAUS, published 2017).

Target: human ErbB2 (HER2) expressed on cells (Renca-lacZ/ErbB2 murine renal cell carcinoma cells); MDA-MB453 human … (human, UniProt P04626 23-1255)
Experiment: cell-based or functional assay

B1: chimeric antigen receptor (CAR) 5.28.z, on the surface of clonal NK-92/5.28.z cells (receptor)
chain: QVQLQQSGPELKKPGETVKISCKASGYPFTNYGMNWVKQAPGQGLKWMGWINTSTGESTFADDFKGRFDFSLETSANTAYLQINNLKSEDSATYFCARWEVYHGYVPYWGQGTTVTVSSGGGGSGGGGSGGGGSDIQLTQSHKFLSTSVGDRVSITCKASQDVYNAVAWYQQKPGQSPKLLIYSASSRYTGVPSRFTGSGSGPDFTFTISSVQAEDLAVYFCQQHFRTPFTFGSGTKLEIKALSNSIMYFSHFVPVFLPAKPTTTPAPRPPTPAPTIASQPLSLRPEACRPAAGGAVHTRGLDKPFWVLVVVGGVLACYSLLVTVAFIIFWVRSKRSRLLHSDYMNMTPRRPGPTRKHYQPYAPPRDFAAYRSRVKFSRSADAPAYQQGQNQLYNELNLGRREEYDVLDKRRGRDPEMGGKPRRKNPQEGLYNELQKDKMAEAYSEIGMKGERRRGKGHDGLYQGLSTATKDTYDALHMQALPPR
specific lysis at an E/T ratio of 10:1 (NK-92/5.28.z irradiated with 10 Gy, MDA-MB453 target cells, 2 h co-incubation): 65 % specific lysis
